Laboratory results published in patent US20200002439A1 (GENSUN BIOPHARMA, published 2020).
Where two headings read alike, the source gives them in different places. Values belong to the binder of their own block, whether it stands above or below them.

Tests used:
[1] = molecular target: T1, human PD-1 on transfected CHO-K1 cells (human, UniProt Q15116 25-288); assay: cell-based blocking assay, flow cytometry: binding of FITC labeled human PD-L1-Fc to human PD-1 transfected CHO-K1 cells is blocked
T1 construct: also called Human PD-1 transfected CHO-K1 cells
Method: Incubate for 15 mins before analysis with the iQue intellicyt system.

[2] = molecular target: T2, recombinant human VEGF 165 (human, UniProt P15692-4 27-191); assay: blocking ELISA: VEGF-165 coated on the plate, binding of recombinant human VEGFR-2-hu IgG1-His Tag is blocked
T2 construct: Bought protein
Method: Briefly, 0.5 ug/ml of recombinant human VEGF-165 (R&D #293-VE-050/CF) in carbonate-bicarbonate buffer was coated to the wells in a 96-well assay plate and incubated overnight at 4° C. The wells were then washed 3 times with 0.05% Tween 20 in PBS (wash buffer), blocked with 1% BSA in PBS for 1 hour at room temperature, and washed 3 times with wash buffer. 50 μl 5-fold serially diluted antibodies were then added to wells in the plate and incubated for 30 minutes at room temperature. […] 100 μl anti-His tag HRP (1:10,000) was then added and the plates were incubated for 40 mins at room temperature and washed 3 times with wash buffer.

[3] = molecular target: human TGFβ1 (human, UniProt P01137 279-390); assay: cell-based or functional assay
[4] = molecular target: T2, recombinant human VEGF 165; assay: cell-based or functional assay
[5] = molecular target: T2, recombinant human VEGF 165; assay: cell-based or functional assay; remark: listed apart in the source
[6] = molecular target: T3, His tagged human Angiopoietin-2 (human, UniProt O15123 19-496, limits assumed); assay: bio-layer interferometry, rhAng2-His
T3 construct: Antigen of the bio-layer interferometry experiments; also called Ang-2; Ang2
T3 sequence (looked up): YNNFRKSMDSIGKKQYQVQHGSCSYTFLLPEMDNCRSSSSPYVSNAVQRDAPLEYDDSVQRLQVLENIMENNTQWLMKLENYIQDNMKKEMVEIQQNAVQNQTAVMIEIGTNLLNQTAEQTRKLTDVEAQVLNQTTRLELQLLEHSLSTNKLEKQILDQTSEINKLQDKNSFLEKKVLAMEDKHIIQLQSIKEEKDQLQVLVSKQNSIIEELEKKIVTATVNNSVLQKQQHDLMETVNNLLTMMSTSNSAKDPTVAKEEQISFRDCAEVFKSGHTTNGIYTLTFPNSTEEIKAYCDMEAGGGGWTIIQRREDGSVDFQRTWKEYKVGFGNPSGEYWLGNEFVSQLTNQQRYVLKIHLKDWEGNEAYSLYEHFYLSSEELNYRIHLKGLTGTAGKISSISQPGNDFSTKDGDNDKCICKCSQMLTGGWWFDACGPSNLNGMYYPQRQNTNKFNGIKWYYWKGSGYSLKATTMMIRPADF

[7] = molecular target: T4, His tagged human PD-1 (human, UniProt Q15116 25-170); assay: bio-layer interferometry, PD-1-His (R&D); column head prints KD (nM) but the cell carries E-09, and Kd/Ka of the same row gives this number in M
T4 construct: also called His tagged human PD-I; PD-1 protein

[8] = molecular target: T2, recombinant human VEGF 165; assay: bio-layer interferometry, rhVEGF165
[9] = molecular target: T1, human PD-1 on transfected CHO-K1 cells; assay: cell-based blocking assay, flow cytometry: binding of FITC labeled human PD-L1-Fc to human PD-1 transfected CHO-K1 cells is blocked; remark: listed apart in the source
[10] = molecular target: T5, recombinant human Ang2 (human, UniProt O15123 19-496); assay: blocking ELISA: Ang2 coated on the plate, binding of recombinant human Tie2 is blocked
T5 construct: also called Ang2 (R&D)
T5 sequence (looked up): T3 sequence (looked up)

[11] = molecular target: T4, His tagged human PD-1; assay: bio-layer interferometry, PD-1-His (R&D)

T2 sequence (P15692 other isoform, or with tags, fused parts or gaps limits assumed): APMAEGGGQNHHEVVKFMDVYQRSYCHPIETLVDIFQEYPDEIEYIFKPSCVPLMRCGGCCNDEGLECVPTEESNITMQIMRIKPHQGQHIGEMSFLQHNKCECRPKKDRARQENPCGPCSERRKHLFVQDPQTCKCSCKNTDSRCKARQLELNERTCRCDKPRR
T1 sequence (Q15116 25-288 limits assumed): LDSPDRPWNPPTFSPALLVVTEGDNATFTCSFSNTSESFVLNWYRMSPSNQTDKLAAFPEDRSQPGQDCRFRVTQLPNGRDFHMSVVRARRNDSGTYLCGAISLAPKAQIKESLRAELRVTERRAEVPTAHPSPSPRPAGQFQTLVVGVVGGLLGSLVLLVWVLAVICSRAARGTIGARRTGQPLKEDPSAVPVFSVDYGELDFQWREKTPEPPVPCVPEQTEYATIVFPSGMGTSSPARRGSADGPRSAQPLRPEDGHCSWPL
T4 sequence (Q15116 25-170 limits assumed): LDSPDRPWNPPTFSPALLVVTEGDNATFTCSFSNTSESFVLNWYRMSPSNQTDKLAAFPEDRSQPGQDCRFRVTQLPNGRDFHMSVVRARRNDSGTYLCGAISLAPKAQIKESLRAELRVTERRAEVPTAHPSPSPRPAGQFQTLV
human TGFβ1, sequence (P01137 279-390 limits assumed): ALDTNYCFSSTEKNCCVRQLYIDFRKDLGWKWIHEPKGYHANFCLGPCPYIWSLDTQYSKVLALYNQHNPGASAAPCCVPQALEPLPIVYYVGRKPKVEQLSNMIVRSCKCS

B1: TS-ZPB-3(2P17) (other)
heavy: QVQLVQSGAEVKKPGASVKVSCKASGYTFTSYYIHWVRQAPGQGLEWMGWIFPGSGNSKYNENFKGRVTLTADTSTSTVYMELSSLRSEDTAVYYCASETYDYGDYWGQGTLVTVSSASTKGPSVFPLAPCSRSTSESTAALGCLVKDYFPEPVTVSWNSGALTSGVHTFPAVLQSSGLYSLSSVVTVPSSSLGTKTYTCNVDHKPSNTKVDKRVESKYGPPCPPCPAPEFLGGPSVFLFPPKPKDTLMISRTPEVTCVVVDVSQEDPEVQFNWYVDGVEVHNAKTKPREEQFNSTYRVVSVLTVLHQDWLNGKEYKCKVSNKGLPSSIEKTISKAKGQPREPQVYTLPPSQEEMIPPHVQKSVNNDMIVTDNNGAVKFPQLCKFCDVRFSTCDNQKSCMSNCSITSICEKPQEVCVAVWRKNDENITLETVCHDPKLPYHDFILEDAASPKCIMKEKKKPGETFFMCSCSSDECNDNIIFSEEYNTSNPDTKNQVSLTCLVKGFYPSDIAVEWESNGQPENNYKTTPPVLDSDGSFFLYSRLTVDKSRWQEGNVFSCSVMHEALHNHYTQKSLSLSLGKGGGGSGGGGSGGGGSSDTGRPFVEMYSEIPEIIHMTEGRELVIPCRVTSPNITVTLKKFPLDTLIPDGKRIIWDSRKGFIISNATYKEIGLLTCEATVNGHLYKTNYLTHRQTNTIIDVVLSPSHGIELSVGEKLVLNCTARTELNVGIDFNWEYPSSKHQHKKLVNRDLKTQSGSEMKKFLSTLTIDGVTRSDQGLYTCAASSGLMTKKNSTFVRVHEK
light: DIQMTQSPSFLSASVGDRVTITCKASQNVGTNVAWYQQKPGKAPKALIYSASYRYSGVPSRFSGSGSGTEFTLTISSLQPEDFATYYCQQYYSYPYTFGQGTKLEIKRTVAAPSVFIFPPSDEQLKSGTASVVCLLNNFYPREAKVQWKVDNALQSGNSQESVTEQDSKDSTYSLSSTLTLSKADYEKHKVYACEVTHQGLSSPVTKSFNRGEC
IC50 [1]: 2.39 nM | IC50 [2]: 7.71 nM | IC50; luciferase signal of TGFβ/SMAD SBE Reporter-HEK293 cells stimulated with human TGFβ1 [3]: 2.95 nM

B2: Bi-ZP-2 (bispecific antibody, human IgG1, kappa, N297A)
heavy: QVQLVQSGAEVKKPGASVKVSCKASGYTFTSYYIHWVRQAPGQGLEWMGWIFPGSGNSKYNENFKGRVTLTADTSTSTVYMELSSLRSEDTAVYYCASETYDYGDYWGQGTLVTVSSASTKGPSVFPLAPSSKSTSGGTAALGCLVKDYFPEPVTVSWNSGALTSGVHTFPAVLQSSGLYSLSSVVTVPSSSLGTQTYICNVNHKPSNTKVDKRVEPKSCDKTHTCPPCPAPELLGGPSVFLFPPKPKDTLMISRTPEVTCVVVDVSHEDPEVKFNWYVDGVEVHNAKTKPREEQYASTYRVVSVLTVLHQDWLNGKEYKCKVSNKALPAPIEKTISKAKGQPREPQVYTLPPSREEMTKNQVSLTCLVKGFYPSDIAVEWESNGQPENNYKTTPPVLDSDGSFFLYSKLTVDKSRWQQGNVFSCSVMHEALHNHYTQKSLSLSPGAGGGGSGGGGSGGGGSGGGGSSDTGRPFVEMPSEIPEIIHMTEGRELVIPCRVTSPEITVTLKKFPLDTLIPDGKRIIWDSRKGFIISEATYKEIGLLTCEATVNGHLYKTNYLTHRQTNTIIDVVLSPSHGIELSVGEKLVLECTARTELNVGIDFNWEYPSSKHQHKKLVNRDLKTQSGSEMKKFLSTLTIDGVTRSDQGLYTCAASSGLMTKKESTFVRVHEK
light: B1 light
IC50 (read off the curve) [4]: ~0.1 nM | IC50 (VEGF-induced luciferase signal, cell based VEGF neutralization assay on VEGFR-2 reporter cells) [5]: 0.14 nM

B6: 2P17 (antibody, V domains shown)
VH: QVQLVQSGAEVKKPGASVKVSCKASGYTFTSYYIHWVRQAPGQGLEWMGWIFPGSGNSKYNENFKGRVTLTADTSTSTVYMELSSLRSEDTAVYYCASETYDYGDYWGQGTLVTVSS
VL: DIQMTQSPSFLSASVGDRVTITCKASQNVGTNVAWYQQKPGKAPKALIYSASYRYSGVPSRFSGSGSGTEFTLTISSLQPEDFATYYCQQYYSYPYTFGQGTKLEIK
notes: also called PD-06; parental antibody 2P17
IC50 [9]: 0.37 nM

Second part, the binder after the results:

Kd [6]: 0.7 nM | koff [6]: 9.05e-05 s⁻¹ | kon [6]: 130000 M⁻¹ s⁻¹ | Kd [7]: 3.84 nM | Kd [8]: 4.9 pM | koff [8]: 5e-06 s⁻¹ | kon [8]: 1.02e+06 M⁻¹ s⁻¹ | IC50 [9]: 0.65 nM | IC50 [10]: 0.6 nM | koff [11]: 0.00147 s⁻¹ | kon [11]: 382000 M⁻¹ s⁻¹
B3: TS-ZPT-3L(2P17) (other)
heavy: QVQLVQSGAEVKKPGASVKVSCKASGYTFTSYYIHWVRQAPGQGLEWMGWIFPGSGNSKYNENFKGRVTLTADTSTSTVYMELSSLRSEDTAVYYCASETYDYGDYWGQGTLVTVSSASTKGPSVFPLAPCSRSTSESTAALGCLVKDYFPEPVTVSWNSGALTSGVHTFPAVLQSSGLYSLSSVVTVPSSSLGTKTYTCNVDHKPSNTKVDKRVESKYGPPCPPCPAPEFLGGPSVFLFPPKPKDTLMISRTPEVTCVVVDVSQEDPEVQFNWYVDGVEVHNAKTKPREEQFNSTYRVVSVLTVLHQDWLNGKEYKCKVSNKGLPSSIEKTISKAKGQPREPQVYTLPPSQEEMGGAQQEECEWDPWTCEHMGSGSATGGSGSTASSGSGSATHQEECEWDPWTCEHMGGTKNQVSLTCLVKGFYPSDIAVEWESNGQPENNYKTTPPVLDSDGSFFLYSRLTVDKSRWQEGNVFSCSVMHEALHNHYTQKSLSLSLGKGGGGSGGGGSGGGGSSDTGRPFVEMYSEIPEIIHMTEGRELVIPCRVTSPNITVTLKKFPLDTLIPDGKRIIWDSRKGFIISNATYKEIGLLTCEATVNGHLYKTNYLTHRQTNTIIDVVLSPSHGIELSVGEKLVLNCTARTELNVGIDFNWEYPSSKHQHKKLVNRDLKTQSGSEMKKFLSTLTIDGVTRSDQGLYTCAASSGLMTKKNSTFVRVHEK
light: B1 light

Kd [6]: 0.65 nM | koff [6]: 8.66e-05 s⁻¹ | kon [6]: 134000 M⁻¹ s⁻¹ | Kd [7]: 3.71 nM | Kd [8]: 5.2 pM | koff [8]: 5.03e-06 s⁻¹ | kon [8]: 974000 M⁻¹ s⁻¹ | IC50 [9]: 0.37 nM | IC50 [10]: 9.34 nM | koff [11]: 0.00146 s⁻¹ | kon [11]: 394000 M⁻¹ s⁻¹
B4: TS-ZPT-3S(2P17) (other)
heavy: QVQLVQSGAEVKKPGASVKVSCKASGYTFTSYYIHWVRQAPGQGLEWMGWIFPGSGNSKYNENFKGRVTLTADTSTSTVYMELSSLRSEDTAVYYCASETYDYGDYWGQGTLVTVSSASTKGPSVFPLAPCSRSTSESTAALGCLVKDYFPEPVTVSWNSGALTSGVHTFPAVLQSSGLYSLSSVVTVPSSSLGTKTYTCNVDHKPSNTKVDKRVESKYGPPCPPCPAPEFLGGPSVFLFPPKPKDTLMISRTPEVTCVVVDVSQEDPEVQFNWYVDGVEVHNAKTKPREEQFNSTYRVVSVLTVLHQDWLNGKEYKCKVSNKGLPSSIEKTISKAKGQPREPQVYTLPPSQEEMGGQEECEWDPWTCEHMGGTKNQVSLTCLVKGFYPSDIAVEWESNGQPENNYKTTPPVLDSDGSFFLYSRLTVDKSRWQEGNVFSCSVMHEALHNHYTQKSLSLSLGKGGGGSGGGGSGGGGSSDTGRPFVEMYSEIPEIIHMTEGRELVIPCRVTSPNITVTLKKFPLDTLIPDGKRIIWDSRKGFIISNATYKEIGLLTCEATVNGHLYKTNYLTHRQTNTIIDVVLSPSHGIELSVGEKLVLNCTARTELNVGIDFNWEYPSSKHQHKKLVNRDLKTQSGSEMKKFLSTLTIDGVTRSDQGLYTCAASSGLMTKKNSTFVRVHEK
light: B1 light
notes: Trispecific antagonist: 2P17 variable domains, single copy of the trebananib peptide within CH3, aflibercept domain at the carboxy terminus by a 3xG4S linker

Kd [7]: 4.76 nM | Kd [8]: 6.3 pM | koff [8]: 4.31e-06 s⁻¹ | kon [8]: 683000 M⁻¹ s⁻¹ | IC50 [9]: 0.43 nM | koff [11]: 0.00159 s⁻¹ | kon [11]: 335000 M⁻¹ s⁻¹
B5: TS-ZPT-3S(2P16) (other)
chain 1: QVQLVQSGAEVKKPGASVKVSCKASGYTFTTYYIYWVRQAPGQGLEWMGGINPGNGGTNFNEKFKIRVTMTRDTSISTAYMELSSLRSEDTAVYYCARRYHGYDGGLDYWGQGTLVTVSSASTKGPSVFPLAPCSRSTSESTAALGCLVKDYFPEPVTVSWNSGALTSGVHTFPAVLQSSGLYSLSSVVTVPSSSLGTKTYTCNVDHKPSNTKVDKRVESKYGPPCPPCPAPEFLGGPSVFLFPPKPKDTLMISRTPEVTCVVVDVSQEDPEVQFNWYVDGVEVHNAKTKPREEQFNSTYRVVSVLTVLHQDWLNGKEYKCKVSNKGLPSSIEKTISKAKGQPREPQVYTLPPSQEEMGGQEECEWDPWTCEHMGGTKNQVSLTCLVKGFYPSDIAVEWESNGQPENNYKTTPPVLDSDGSFFLYSRLTVDKSRWQEGNVFSCSVMHEALHNHYTQKSLSLSLGKGGGGSGGGGSGGGGSSDTGRPFVEMYSEIPEIIHMTEGRELVIPCRVTSPNITVTLKKFPLDTLIPDGKRIIWDSRKGFIISNATYKEIGLLTCEATVNGHLYKTNYLTHRQTNTIIDVVLSPSHGIELSVGEKLVLNCTARTELNVGIDFNWEYPSSKHQHKKLVNRDLKTQSGSEMKKFLSTLTIDGVTRSDQGLYTCAASSGLMTKKNSTFVRVHEK
chain 2: DIVLTQSPASLAVSPGQRATITCRASKSVSTSGFSYIHWYQQKPGQPPKLLIYLASNLESGVPARFSGSGSGTDFTLTINPVEANDTANYYCQHTWELPNTFGGGTKVEIKRTVAAPSVFIFPPSDEQLKSGTASVVCLLNNFYPREAKVQWKVDNALQSGNSQESVTEQDSKDSTYSLSSTLTLSKADYEKHKVYACEVTHQGLSSPVTKSFNRGEC
